Experiments:
tumors [1] = experiment: In vivo anti-tumor activity of TIGIT-Fc-OX40L chimeric protein and anti-CTLA-4 antibody in tumor-inoculated mice
Procedure: The in vivo ability of combinations of the TIGIT-Fc-OX40L chimeric protein with anti-CTLA-4 antibodies (FIG. 3A to FIG. 3C) to target and treat tumors were determined.
(§1) Mice were inoculated with tumors and were treated with a vehicle, an antibody, the TIGIT-Fc-OX40L chimeric protein, or combinations of the TIGIT-Fc-OX40L chimeric protein and an anti-CTLA-4 antibody; in the combinations, the TIGIT-Fc-OX40L chimeric protein was administered before the antibody, the TIGIT-Fc-OX40L chimeric protein was administered after the antibody, or the TIGIT-Fc-OX40L chimeric protein was administered with the antibody. See, FIG. 3A for the dose schedules.
FIG. 3C includes data relevant to the graphs of FIG. 3A and FIG. 3B.

tumors [2] = experiment: In vivo anti-tumor activity of TIGIT-Fc-OX40L chimeric protein and anti-PD-1 antibody in tumor-inoculated mice
Procedure: The in vivo ability of combinations of the TIGIT-Fc-OX40L chimeric protein with anti-PD-1 antibodies (FIG. 4A to FIG. 4D) to target and treat tumors were determined.
as §1, with “anti-PD-1” for “anti-CTLA-4”, “antibody.” for “antibody. See, FIG. 3A for the dose schedules.”
FIG. 4C and FIG. 4D include data relevant to the graphs of FIG. 4A and FIG. 4B.

[3] = system: tumor infiltrating lymphocytes (TIL) of CT26 (colorectal carcinoma) tumors; experiment: Immune phenotyping of tumor infiltrating lymphocytes (TIL) by flow cytometry; type: in vivo, BALB/C mice; settings: IP days 0, 3, 6; 300 mg ARC, 100 mg anti-PD-1; tumor collected day 7
From the text: FIG. 6A to FIG. 6G show the results of immune phenotyping of the tumor infiltrating lymphocytes (TIL) in BALB/C mice harboring CT26 (colorectal carcinoma) tumor allografts treated with ARC (TIGIT-Fc-OX40L or TIGIT-Fc-LIGHT) alone or the combination with anti-PD-1 (clone RMP1-14) antibody. The fractions (expressed as percentages) of total CD8^+ cells (FIG. 6A), total Perforin CD8^+ cells (FIG. 6B), total IFNγ^+ CD8^+ cells (FIG. 6C), total AH1-tetramer CD8^+ cells (antigen-specific CD8^+ cells) (FIG. 6D), total CD4±cells (FIG. 6E), total NKP46^+ NK cells (FIG. 6F) and total IFNγ±(NKP46^+ NK) cells (FIG. 6G) in the indicated cell populations in the dissociated tumor tissue as determined by flow cytometry analyses.
BALB/C mice were inoculated with CT26 (colorectal carcinoma) tumors, and when starting tumor volumes reached 30-60 mm^3 (indicating day 0), treatment was begun. Mice were treated via intraperitoneal (IP) injection on days 0, 3, and 6 with […] of either ARC (TIGIT-Fc-OX40L or TIGIT-Fc-LIGHT) or the combination of each ARC with […] of anti-PD-1 (clone RMP1-14). On day 7, mice were euthanized, tumor tissue was collected and dissociated, and analyzed by flow cytometry and calculated as percent cell types. The total % of CD8+ T cells detected in the tumor are similar between treatment groups (FIG. 6A).
The immunodominant CD8+ T cell response against CT26 carcinoma cells is directed against a tumor/self-antigen, GP70423-431, also known as AH1. To evaluate the T cell response against CT26, total AH1-tetramer CD8^+ cells were quantitated.
Other relevant cell types, including total % of CD4+ T cells, NKP46^+ NK cells, including the total IFNγ±NKP46^+ NK cells in the tumors were also quantitated. […] The IFNγ±cells were quantitated among NKP46^+ NK cells.

CT26 tumor = experiment: In vivo anti-tumor activity of TIGIT-Fc-LIGHT chimeric protein and anti-PD1 antibody in mice challenged with CT26 tumor; parameters: species or system mouse; settings: monotherapy on days 1, 3, and 6, compared to vehicle only-treated mice
From the text: FIG. 5B is a Kaplan Meyer plot of survival and statistics of the CT26 tumor experiment of FIG. 5A. […] FIG. 5C and FIG. 5D includes data relevant to the graphs of FIG. 5A and FIG. 5B.

[4] = administered on days 7, 9, and 11, compared to vehicle only-treated mice and to days 12, 14, 16 schedule
[5] = administered on days 12, 14, and 16, compared to vehicle only-treated mice
[6] = compared to the dosing regimen-matched αCTLA antibody-treated mice
[7] = compared to the dosing regimen-matched αPD-1 antibody-treated mice

B1: TIGIT-Fc-OX40L: chimeric protein: extracellular domain of TIGIT, hinge-CH2-CH3 Fc linker, extracellular domain of OX40L (SEQ ID NO: 60) (protein)
chain: MMTGTIETTGNISAEKGGSIILQCHLSSTTAQVTQVNWEQQDQLLAICNADLGWHISPSFKDRVAPGPGLGLTLQSLTVNDTGEYFCIYHTYPDGTYTGRIFLEVLESSVAEHGARFQIPSKYGPPCPPCPAPEFLGGPSVFLFPPKPKDQLMISRTPEVTCVVVDVSQEDPEVQFNWYVDGVEVHNAKTKPREEQFNSTYRVVSVLTVLHQDWLSGKEYKCKVSSKGLPSSIEKTISNATGQPREPQVYTLPPSQEEMTKNQVSLTCLVKGFYPSDIAVEWESNGQPENNYKTTPPVLDSDGSFFLYSRLTVDKSRWQEGNVFSCSVLHEALHNHYTQKSLSLSLGKIEGRMDQVSHRYPRIQSIKVQFTEYKKEKGFILTSQKEDEIMKVQNNSVIINCDGFYLISLKGYFSQEVNISLHYQKDEEPLFQLKKVRSVNSLMVASLTYKDKVYLNVTTDNTSLDDFHVNGGELILIHQNPGEFCVL
Question: Which survival (tumors [1]; [4]) does the source give for B1 here?
Answer: extended survival

Question: And the tumor development (tumors [1]; [4])?
Answer: slower tumor development

Question: And the survival (tumors [1]; [5])?
Answer: extended survival

Question: And the tumor development (tumors [1]; [5])?
Answer: slower tumor development

Question: What about the survival (tumors [1]; [6]) of the same molecule?
Answer: extended survival

Question: What about the tumor development (tumors [1]; [6]) of the same molecule?
Answer: slower tumor development

Question: What about the survival (tumors [2]; [4]) of the same molecule?
Answer: extended survival

Question: And the tumor development (tumors [2]; [4])?
Answer: slower tumor development

Question: What about the survival (tumors [2]; [5]) of the same molecule?
Answer: extended survival

Question: What about the tumor development (tumors [2]; [5]) of the same molecule?
Answer: slower tumor development

Question: And the survival (tumors [2]; [7])?
Answer: extended survival

Question: And the tumor development (tumors [2]; [7])?
Answer: slower tumor development

Question: And the “total AH1-tetramer CD8+ cells among the total CD8+ cells” value [3]?
Answer: increased

Question: And the “total CD4+ cells among the total mononuclear cells” value [3]?
Answer: increased

Question: And the “total IFNγ+ CD8+ cells among the total CD8+ cells” value [3]?
Answer: increased

Question: And the “total IFNγ+ cells among the total NKP46+ NK cells” value [3]?
Answer: increased

Question: And the “total NKP46+ NK cells among the total mononuclear cells” value [3]?
Answer: increased

Question: And the “total Perforin CD8+ cells among the total CD8+ cells” value [3]?
Answer: increased

B2: TIGIT-Fc-LIGHT: chimeric protein: extracellular domain of TIGIT, hinge-CH2-CH3 Fc linker, extracellular domain of LIGHT (SEQ ID NO: 61) (protein)
chain: MEWSWVFLFFLSVTTGVHSMMTGTIETTGNISAEKGGSIILQCHLSSTTAQVTQVNWEQQDQLLAICNADLGWHISPSFKDRVAPGPGLGLTLQSLTVNDTGEYFCIYHTYPDGTYTGRIFLEVLESSVAEHGARFQIPSKYGPPCPPCPAPEFLGGPSVFLFPPKPKDQLMISRTPEVTCVVVDVSQEDPEVQFNWYVDGVEVHNAKTKPREEQFNSTYRVVSVLTVLHQDWLSGKEYKCKVSSKGLPSSIEKTISNATGQPREPQVYTLPPSQEEMTKNQVSLTCLVKGFYPSDIAVEWESNGQPENNYKTTPPVLDSDGSFFLYSRLTVDKSRWQEGNVFSCSVLHEALHNHYTQKSLSLSLGKIEGRMDLQLHWRLGEMVTRLPDGPAGSWEQLIQERRSHEVNPAAHLTGANSSLTGSGGPLLWETQLGLAFLRGLSYHDGALVVTKAGYYYIYSKVQLGGVGCPLGLASTITHGLYKRTPRYPEELELLVSQQSPCGRATSSSRVWWDSSFLGGVVHLEAGEKVVVRVLDERLVRLRDGTRSYFGAFMV
Question: What does the source list for B2?
Answer: survival (CT26 tumor): extended survival; tumor development (CT26 tumor): slower tumor development; total AH1-tetramer CD8+ cells among the total CD8+ cells [3]: increased; total CD4+ cells among the total mononuclear cells [3]: increased; total IFNγ+ CD8+ cells among the total CD8+ cells [3]: increased; total IFNγ+ cells among the total NKP46+ NK cells [3]: increased; total NKP46+ NK cells among the total mononuclear cells [3]: increased; total Perforin CD8+ cells among the total CD8+ cells [3]: increased

From patent US20220185863A1, “COMBINATION THERAPIES” (Shattuck Labs, Inc., priority 2019, published 2022)
